Results taken from patent US20200317768A1 (published 2020).

Tests used:
[1] = target: T1, cynomolgus monkey FcγRIIa1 extracellular domain with C-terminal His-tag (cynomolgus monkey); test: SPR (Biacore); KD of SG1 divided by KD of the variant for this FcgR;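 also: relative to parent M103205H795-SG1 carrying the SG1 human heavy chain constant region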
T1 construct: Expressed in FreeStyle 293 cells and purified; also called cyno FcγRIIa1; cynoFcgRIIa1; not shown: C-terminal His-tag
T1 chain: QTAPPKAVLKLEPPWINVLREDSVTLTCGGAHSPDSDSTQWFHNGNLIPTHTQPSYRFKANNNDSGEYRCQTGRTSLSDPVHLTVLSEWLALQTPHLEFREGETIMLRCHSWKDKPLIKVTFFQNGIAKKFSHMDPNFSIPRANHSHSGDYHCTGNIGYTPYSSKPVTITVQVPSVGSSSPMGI
Description: (§1) The kinetic analysis of interactions between these antibodies and FcγR was carried out using BIACORE® T200 or BIACORE® 4000 (GE Healthcare). HBS-EP+ (GE Healthcare) was used as the running buffer, and the measurement temperature was set to 25° C. A chip produced by immobilizing Protein A. Protein A/G or mouse anti-human IgG kappa light chain (BD Biosciences) onto a Series S Sensor Chip CM4 or CM5 (GE Healthcare) by the amine-coupling method was used. […] After the measurement, the antibody captured on the chip was washed off by allowing reaction with 10 mM glycine-HCl, pH1.5 and 25 mM NaOH so that the chip was regenerated and used repeatedly. The sensorgrams obtained as measurement results were analyzed by the 1:1 Langmuir binding model using the BIACORE® Evaluation Software to calculate the binding rate constant ka (L/mol/s) and dissociation rate constant kd (l/s), and the dissociation constant KD (mol/L) was calculated from these values. […] Regarding such interactions, KD values were calculated using the following 1:1 binding model described in BIACORE® T100 Software Handbook BR1006-48 Edition AE.
(§2) The resultant variants were expressed using M103202L889-SK1 as light chain and their affinity to human and cynoFcγRs were evaluated (Table 20).

[2] = target: T2, cynomolgus monkey FcγRIIa2 extracellular domain with C-terminal His-tag (cynomolgus monkey); test: as above
T2 construct: Expressed in FreeStyle 293 cells and purified; also called cyno FcγRIIa2; cynoFcgRIIa2; not shown: C-terminal His-tag
T2 chain: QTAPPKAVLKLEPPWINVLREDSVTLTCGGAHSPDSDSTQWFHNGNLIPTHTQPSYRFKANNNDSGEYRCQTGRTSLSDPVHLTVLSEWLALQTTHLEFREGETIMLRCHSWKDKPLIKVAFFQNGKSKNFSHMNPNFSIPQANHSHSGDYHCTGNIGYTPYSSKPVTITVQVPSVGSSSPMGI
Description: as §1, §2

[3] = target: T3, cynomolgus monkey FcγRIIa3 extracellular domain with C-terminal His-tag (cynomolgus monkey); test: as above
T3 construct: Expressed in FreeStyle 293 cells and purified; also called cyno FcγRIIa3; cynoFcgRIIa3; not shown: C-terminal His-tag
T3 chain: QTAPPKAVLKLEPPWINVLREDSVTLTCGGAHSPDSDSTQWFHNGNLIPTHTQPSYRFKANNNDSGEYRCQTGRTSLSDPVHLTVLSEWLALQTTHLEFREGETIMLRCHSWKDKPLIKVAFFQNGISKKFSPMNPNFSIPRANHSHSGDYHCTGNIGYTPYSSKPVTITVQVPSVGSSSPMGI
Description: as §1, §2

[4] = target: T4, cynomolgus monkey FcγRIIb extracellular domain with C-terminal His-tag (cynomolgus monkey); test: as above
T4 construct: Expressed in FreeStyle 293 cells and purified; also called cyno FcγRIIb; cynoFcγRIIb; not shown: C-terminal His-tag
T4 chain: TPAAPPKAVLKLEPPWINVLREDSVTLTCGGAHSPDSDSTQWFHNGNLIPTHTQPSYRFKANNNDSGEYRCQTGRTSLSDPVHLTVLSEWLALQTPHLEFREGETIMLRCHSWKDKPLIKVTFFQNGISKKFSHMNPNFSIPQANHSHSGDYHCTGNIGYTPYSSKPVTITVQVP
Description: as §1, §2

[5] = target: T5, human FcγRIIaH extracellular domain with C-terminal His-tag (human, UniProt P12318 34-217); test: as above
T5 construct: Expressed in FreeStyle 293 cells and purified; also called human FcγRIIa (type H); FcgRIIaH; not shown: C-terminal His-tag
T5 sequence: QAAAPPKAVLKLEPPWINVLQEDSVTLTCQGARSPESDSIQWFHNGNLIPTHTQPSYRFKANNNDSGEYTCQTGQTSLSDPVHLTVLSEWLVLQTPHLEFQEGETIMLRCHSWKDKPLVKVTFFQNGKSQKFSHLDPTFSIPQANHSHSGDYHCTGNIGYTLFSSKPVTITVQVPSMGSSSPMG
Description: as §1, §2

[6] = target: T6, human FcγRIIb extracellular domain with C-terminal His-tag (human, UniProt P31994 43-217); test: as above
T6 construct: Expressed in FreeStyle 293 cells and purified; also called humanFcgRIIb; not shown: C-terminal His-tag
T6 sequence: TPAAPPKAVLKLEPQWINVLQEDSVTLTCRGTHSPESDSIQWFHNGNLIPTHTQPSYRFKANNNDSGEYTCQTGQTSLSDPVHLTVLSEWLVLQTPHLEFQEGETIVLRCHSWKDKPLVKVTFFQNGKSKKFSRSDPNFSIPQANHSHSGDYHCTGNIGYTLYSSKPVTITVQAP
Description: as §1, §2

[7] = target: T7, human FcγRIIIaV extracellular domain with C-terminal His-tag (human, UniProt P08637 17-208); test: as above
T7 construct: Expressed in FreeStyle 293 cells and purified; also called FcgRIIIaV; not shown: C-terminal His-tag
Description: as §1, §2

[8] = target: T3, cynomolgus monkey FcγRIIa3 …; test: SPR (Biacore), antibody captured on chip, FcgR extracellular domain as analyte, 25 C
Description: as §1, §2

[9] = target: T6, human FcγRIIb extracellular domain with …; test: as above
Description: as §1, §2

[10] = target: T7, human FcγRIIIaV extracellular domain …; test: as above
Description: as §1, §2

T7 sequence (P08637 17-208 F176V): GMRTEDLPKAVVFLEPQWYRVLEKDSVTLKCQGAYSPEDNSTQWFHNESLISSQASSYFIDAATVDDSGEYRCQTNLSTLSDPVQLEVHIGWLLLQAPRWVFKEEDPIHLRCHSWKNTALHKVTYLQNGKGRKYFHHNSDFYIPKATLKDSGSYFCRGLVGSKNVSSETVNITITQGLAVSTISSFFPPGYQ

B1: MS_M103205H795-SG1/M103202L889-SK1 (antibody, human IgG1, kappa)
heavy: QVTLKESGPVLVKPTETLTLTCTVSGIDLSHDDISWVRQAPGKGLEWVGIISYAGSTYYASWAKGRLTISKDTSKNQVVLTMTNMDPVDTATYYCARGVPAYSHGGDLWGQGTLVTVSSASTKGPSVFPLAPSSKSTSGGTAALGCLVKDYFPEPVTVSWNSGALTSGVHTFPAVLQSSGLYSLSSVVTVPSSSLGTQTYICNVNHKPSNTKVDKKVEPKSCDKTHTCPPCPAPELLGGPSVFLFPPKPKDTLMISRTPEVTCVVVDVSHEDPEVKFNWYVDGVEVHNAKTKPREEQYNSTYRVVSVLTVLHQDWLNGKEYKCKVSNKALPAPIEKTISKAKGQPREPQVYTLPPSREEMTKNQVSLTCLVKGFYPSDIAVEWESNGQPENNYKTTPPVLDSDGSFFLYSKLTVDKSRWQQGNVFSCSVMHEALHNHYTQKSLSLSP
light: DIVMTQSPATLSLSPGERATLSCTSSQSVYHANWLSWFQQKPGQPPKLLIYWASTLAYGVPSRFSGSGSGTDFTLTISSLQPEDAATYYCAGGYGGGRYAFGQGTKVEIKRTVAAPSVFIFPPSDEQLKSGTASVVCLLNNFYPREAKVQWKVDNALQSGNSQESVTEQDSKDSTYSLSSTLTLSKADYEKHKVYACEVTHQGLSSPVTKSFNRGEC
notes: Anti-latent myostatin IgG; also called MS1032LO06-SG1
KD fold (SG1 = 1) [1]: 1 fold | KD fold (SG1 = 1) [2]: 1 fold | KD fold (SG1 = 1) [3]: 1 fold | KD fold (SG1 = 1) [4]: 1 fold | KD fold (SG1 = 1) [5]: 1 fold | KD fold (SG1 = 1) [6]: 1 fold | KD fold (SG1 = 1) [7]: 1 fold | Kd [8]: 17 µM | Kd [9]: 4.6 µM | Kd [10]: 0.81 µM

B2: M103205H795-MY169 / M103202L889-SK1 (antibody, human IgG1, kappa)
heavy: QVTLKESGPVLVKPTETLTLTCTVSGIDLSHDDISWVRQAPGKGLEWVGIISYAGSTYYASWAKGRLTISKDTSKNQVVLTMTNMDPVDTATYYCARGVPAYSHGGDLWGQGTLVTVSSASTKGPSVFPLAPSSKSTSGGTAALGCLVKDYFPEPVTVSWNSGALTSGVHTFPAVLQSSGLYSLSSVVTVPSSSLGTQTYICNVNHKPSNTKVDKKVEPKSCDKTHTCPPCPAPELLNGPSVFLFPPKPKDTLMISRTPEVTCVVVDVSEEDPEVKFNWYVDGVEVHNAKTKPREEQYNSTYRVVSVLTVLHQDWLNGKEYKCKVSNKALPAPIEKTISKAKGQPREPQVYTLPPSREEMTKNQVSLTCLVKGFYPSDIAVEWESNGQPENNYKTTPDVLDSDGSFFLYSKLTVDKSRWQQGNVFSCSVMHEALHNHYTQKSLSLSP
light: DIVMTQSPATLSLSPGERATLSCTSSQSVYHANWLSWFQQKPGQPPKLLIYWASTLAYGVPSRFSGSGSGTDFTLTISSLQPEDAATYYCAGGYGGGRYAFGQGTKVEIKRTVAAPSVFIFPPSDEQLKSGTASVVCLLNNFYPREAKVQWKVDNALQSGNSQESVTEQDSKDSTYSLSSTLTLSKADYEKHKVYACEVTHQGLSSPVTKSFNRGEC
notes: Position 396 variant derived from MY052, expressed with M103202L889-SK1 as light chain
KD fold (SG1 = 1) [1]: 1.4 fold | KD fold (SG1 = 1) [2]: 2.2 fold | KD fold (SG1 = 1) [3]: 1.7 fold | KD fold (SG1 = 1) [4]: 1.8 fold | KD fold (SG1 = 1) [5]: 0.6 fold | KD fold (SG1 = 1) [6]: 3.5 fold | KD fold (SG1 = 1) [7]: 0.13 fold | Kd [8]: 9.9 µM | Kd [9]: 1.3 µM | Kd [10]: 6.2 µM

B3: M103205H795-MY168 / M103202L889-SK1 (antibody, human IgG1, kappa)
heavy: QVTLKESGPVLVKPTETLTLTCTVSGIDLSHDDISWVRQAPGKGLEWVGIISYAGSTYYASWAKGRLTISKDTSKNQVVLTMTNMDPVDTATYYCARGVPAYSHGGDLWGQGTLVTVSSASTKGPSVFPLAPSSKSTSGGTAALGCLVKDYFPEPVTVSWNSGALTSGVHTFPAVLQSSGLYSLSSVVTVPSSSLGTQTYICNVNHKPSNTKVDKKVEPKSCDKTHTCPPCPAPELLNGPSVFLFPPKPKDTLMISRTPEVTCVVVDVSEEDPEVKFNWYVDGVEVHNAKTKPREEQYNSTYRVVSVLTVLHQDWLNGKEYKCKVSNKALPAPIEKTISKAKGQPREPQVYTLPPSREEMTKNQVSLTCLVKGFYPSDIAVEWESNGQPENNYKTTPAVLDSDGSFFLYSKLTVDKSRWQQGNVFSCSVMHEALHNHYTQKSLSLSP
light: DIVMTQSPATLSLSPGERATLSCTSSQSVYHANWLSWFQQKPGQPPKLLIYWASTLAYGVPSRFSGSGSGTDFTLTISSLQPEDAATYYCAGGYGGGRYAFGQGTKVEIKRTVAAPSVFIFPPSDEQLKSGTASVVCLLNNFYPREAKVQWKVDNALQSGNSQESVTEQDSKDSTYSLSSTLTLSKADYEKHKVYACEVTHQGLSSPVTKSFNRGEC
notes: as for B2
KD fold (SG1 = 1) [1]: 1.5 fold | KD fold (SG1 = 1) [2]: 2 fold | KD fold (SG1 = 1) [3]: 1.7 fold | KD fold (SG1 = 1) [4]: 1.5 fold | KD fold (SG1 = 1) [5]: 0.4 fold | KD fold (SG1 = 1) [6]: 2.7 fold | KD fold (SG1 = 1) [7]: 0.1 fold | Kd [8]: 10 µM | Kd [9]: 1.7 µM | Kd [10]: 8.1 µM

B4: M103205H795-MY052 / M103202L889-SK1 (antibody, human IgG1, kappa)
heavy: QVTLKESGPVLVKPTETLTLTCTVSGIDLSHDDISWVRQAPGKGLEWVGIISYAGSTYYASWAKGRLTISKDTSKNQVVLTMTNMDPVDTATYYCARGVPAYSHGGDLWGQGTLVTVSSASTKGPSVFPLAPSSKSTSGGTAALGCLVKDYFPEPVTVSWNSGALTSGVHTFPAVLQSSGLYSLSSVVTVPSSSLGTQTYICNVNHKPSNTKVDKKVEPKSCDKTHTCPPCPAPELLNGPSVFLFPPKPKDTLMISRTPEVTCVVVDVSEEDPEVKFNWYVDGVEVHNAKTKPREEQYNSTYRVVSVLTVLHQDWLNGKEYKCKVSNKALPAPIEKTISKAKGQPREPQVYTLPPSREEMTKNQVSLTCLVKGFYPSDIAVEWESNGQPENNYKTTPMVLDSDGSFFLYSKLTVDKSRWQQGNVFSCSVMHEALHNHYTQKSLSLSP
light: DIVMTQSPATLSLSPGERATLSCTSSQSVYHANWLSWFQQKPGQPPKLLIYWASTLAYGVPSRFSGSGSGTDFTLTISSLQPEDAATYYCAGGYGGGRYAFGQGTKVEIKRTVAAPSVFIFPPSDEQLKSGTASVVCLLNNFYPREAKVQWKVDNALQSGNSQESVTEQDSKDSTYSLSSTLTLSKADYEKHKVYACEVTHQGLSSPVTKSFNRGEC
notes: Fc variant of M103205H795-SG1, expressed with M103202L889-SK1 as light chain; parent of the position 396 variants
KD fold (SG1 = 1) [1]: 2.3 fold | KD fold (SG1 = 1) [2]: 3.4 fold | KD fold (SG1 = 1) [3]: 4.4 fold | KD fold (SG1 = 1) [4]: 3.9 fold | KD fold (SG1 = 1) [5]: 0.8 fold | KD fold (SG1 = 1) [6]: 6.4 fold | KD fold (SG1 = 1) [7]: 0.54 fold | Kd [8]: 3.9 µM | Kd [9]: 0.72 µM | Kd [10]: 1.5 µM
